Experiment [1] concerns the target Secreted IgG. Description: flow cytometry, human bone marrow plasma cells (CD20- CD38++) with NHS-biotin, StAv-anti-human Igk and anti-IgG; controls in FIG. 21B (D00065): without NHS-Biotin 1.2%, without StAv-IgKappa 0.72%, without anti-IgG 0%.
Experiment [2] addresses IgE (lambda light chain) secreted by U266 cells. The experiment in a line: flow cytometry, Ramos + U266 mixed 100X1 with the StAv-FcεRIα capture complex; 94.6 % of the cells lie in the IgM+ gate at low secreted IgE. A general note: In flow cytometry, cells or beads pass a laser one at a time.
The target is the same in experiment [3]. Description: flow cytometry, U266 cells alone with the StAv-FcεRIα capture complex; x axis Secreted IgE, y axis IgM.

On to “streptavidin coupled to anti-human Igk (antibody)”, for which the % IgG+ of plasma cells in experiment [1] was 5.2%. Take “secreted IgE capture reagent: streptavidin conjugated to the ectodomain of the high affinity IgE receptor FcεRIα (from UniProt P12319 26-205)”: the values for the % of cells in the secreted IgE+ / IgM- gate in experiment [2] and in experiment [3] were 2.4% and 94.9%, respectively.

The values above are taken from patent publication US20230349919A1.
